Source: the domain aggregation screens of Martell et al. (2025)

assay: soluble fraction after stress (log2 fold change); higher = more stays soluble; pooled small domains, quantitative proteomics; details: stress: 50 degC
How it was run: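 Quantitative proteomics served as the high-throughput read-out for pooled custom libraries of small protein domains. Each was stressed at 50°C. Aggregation propensity is expressed as the base-two log fold change in soluble protein after stress. A higher value means a larger share of the protein remains in solution.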

Compared with “HMSFEITGDELILRFVKDKGGATTEQIRKHWEASNRGGKSDNNLTNLVKSGKLLRSKDPNGPGSLYTAS”, “HMDLFREERRQAILDWLATAGRVSVAELSASFGVSEVTVRADLQALADRRLVVRTHGGAMMAG” is lower in “soluble fraction (log2)” value: -0.231 for the first, -1.43 for the second.

First: HMSAPRRGETTAASLNLRAGPATDADILAQLPERTPLRVLQEDGEWLRVETHGNEGFVHRQFVAIPGDEP
Second: HMEIELHNLALNIKEFRKKNKLSQAELAEKLGVARTTIGYYERAEVEPNIYTLVQLSKLMNRSIDSLLGL
The “soluble fraction (log2)” value of the first is higher: 0.218 for the first, -1.3 for the second.

Going from “HMTVSGNIAGDYKDYLPQKTDVINGMTVTYRMVDDAVYLASWKHAGQNHVFLFNDPVSVERAREMI” to “HMLPSWLPTDAWEAFLEARVAMKARPTERAKGLLLGELSKLVSQGQDARAVLEQSVQRGWRGLFPVK”, the “soluble fraction (log2)” value falls from -0.577 to -1.52.

Compared with “HMNVNFVQANLANLPNIQAIYQKGNEMLNDMKRGEAREIDEAYSRVDNGVGTEKDFKVLLSFRDKIIAAMQ”, “HMNPAIYIRKNILNLTQEKLSEYLDVTQPTIHRWEESGVIPAKHQRQIREFASEKGIYWNDSWFFSIPDE” is lower in “soluble fraction (log2)” value: 0.362 for the first, -0.953 for the second.

Compared with “HMTVLDYNENVLSKVMNAAEINDSDKEAFIAFAKDYNSDDNLYLKKEELETAAGAWNARNVE”, “HMNIGEKIKTLRENNNISIEELAEKINDSIENILKYENNELEPTLDKKLALSIALGVTLSDLS” is lower in “soluble fraction (log2)” value: 0.358 for the first, -0.114 for the second.

Compared with “HMSKNVTMPNLVGYSMRQAKAELLSRGLHLGKLIYVNDIATNNVISQLYRNAEIEPGVKIESESYVDLVVG”, “HMATLTPLGRLQLARYHAQERATLAATAERFQVSTTTVRRWVGRYHQVVAAGGRPTTADMQDRPSRP” is lower in “soluble fraction (log2)” value: -1.45 for the first, -2 for the second.

Going from “HMNIYIEFGRRLAFIRQNSKLSQSQIAQKLNIAQSTYAGYEKGVRKIPLEIIVQLSKILNISPTILILG” to “HMDIVKVYTTARAGETLASVAKRTGVDVARLAQWNDIPLKRAKQKLKTGKALALWVQREHASAYSNAPP”, the “soluble fraction (log2)” value rises from -3.91 to -0.151.

“HMPNILLSVKDASVAISVSSKMVRLLIASGRLKAVNLGKRMTRISLQELTDFAQRQGGNVVLP” and “HMSTIAAMADPRAWALEMLGFPPGTVKPSKREIQVRFRESLRDVHPDHGGDSRTASASINDLSEARRVLLS” are within 0.2 log units of each other in “soluble fraction (log2)” value: -0.147 for the first, -0.188 for the second.

“HMAGHKVDFSELPARSQAFIGKNFPTEMVKNVEMERKDAKDHYTVLLSNGTKVMFDGTSGELTGV” and “HMEHNDPEVERTMFQGLEALKLQLFEKAFGHFSLLIKLAPDYAEAWNKRATVLYLMGRFKESESDVMRTLE” are within 0.2 log units of each other in “soluble fraction (log2)” value: 0.0973 for the first, 0.0585 for the second.

First: HMDNIGKTLGQNQTRQYKVAYAEAAKLPAIIMGLVPLPKPPVVDERLRSLYVTATPEQHRQIETLMNRI
Second: HMDTINEYERNILSLITSKPGISAVQIAADTDKSIITAKRGIKTLVDGKLIEYRGSKKTGGYFLLTQS
The “soluble fraction (log2)” value of the first is higher: 0.11 for the first, -0.371 for the second.

“HMSKTQVKSVLDDIKGIGVVRRKALIKHFNDIEAIKAAQLAELKAVAGMDSKSAQSVYDFFHK” and “HMTVMTGSQRRKKILELMRDAKEPLSGGALGKETGVSRHVVVQDIALLRTQGYPIVATARGYIINE” are within 0.2 log units of each other in “soluble fraction (log2)” value: -0.186 for the first, -0.212 for the second.

Going from “HMYQRLPFSFANRYKMVLESQHPERAPILYYVEPLKSAAIIEVSRVVKNGFTPQAITLDEFDKKLTDAYQR” to “HMETLSVRERMTSIISLLNKHEDIEFSKLFNISEGRLGVVVTFLALLELVKESLVDVIQNQPMSKLYIGKK”, the “soluble fraction (log2)” value rises from -0.908 to -0.311.

“HMIENPGQTFERIAGKITRTLRTGPLRIQQLDLLFSESGEQVMDVLRAMAENGEILIKDDTIQWNGHN” and “HMNDREAAYEDLPDELVRVGQKVFIKSLETEGVIVQPPNKKGEVRVRSGNISTNVKRSDLGLPIEKP” are within 0.2 log units of each other in “soluble fraction (log2)” value: -0.0388 for the first, 0.129 for the second.

First: HMTSMYYLNKAVKEGNAKAIRQLLSAGININVRKRETSTPLDFAIKYKQTEIADLLRKHGGKTAEELKAEE
Second: HMGDEVAVTEILVKVGDTVEADQSLLTVEGDKASMEVPAPFAGVVKAIQVQLGDKVVTGSPIMLFEV
The “soluble fraction (log2)” value of the first is lower: -0.343 for the first, -0.00831 for the second.

“HMGKEYERALQQVTKSEIDSDEKLQQQMDALVNSPRISDKEDAWALLLVKKLRNEGVEWDELPDVLSERVQ” and “HMALEVPGIAKDKIYRIFGQLYERQQKWEDAIDYYNRAVFFTLSGTDMILYQEDLSRVKQKISL” are within 0.2 log units of each other in “soluble fraction (log2)” value: 0.0796 for the first, -0.0269 for the second.

Going from “HMRITEGEIVEIQEGDNRALVGVGEKLEGIISLDEIRGADGKLLFNVGDKITVMVMGHYNERPK” to “HMTAKRELILRVFMDSNGKLLSIDDVFMEMRKKRSHRTSKMTVKRAIDLLVDLGLLKEVLFDDDNIKYEYV”, the “soluble fraction (log2)” value falls from 0.15 to -0.0948.

“HMESKITTAEAAAILNASPQFVRVAMQRGILNIGIAMQMPNSNKWTYNISPKLLGEYSGKNIEYELERLR” and “HMDTAEQNWRLRGKLVTLGLNARQIRMALASHAPRYLEDNIAVVERDLAAGKVRNLPAYLLAALREDYRP” are within 0.2 log units of each other in “soluble fraction (log2)” value: -1.54 for the first, -1.67 for the second.

First: HMERYSVQVGSFRNMRYAERLKQELQGEDFPAYIEKSGEFNRVRVGKGLTLEEATQLEQVLRKSGYQTVIV
Second: HMPIGENIKRLRIMHGLSQKELAQIAGVSDKAVSTWENGTKEPRMGAVQKITGYFGLKKSNLIEDNGL
The “soluble fraction (log2)” value of the first is lower: -0.395 for the first, -0.0331 for the second.

For “HMPAQPEPYNNLARLYSAQGKLDQAASLLRAGLYTDPAYRALFDNLTRIYAEQAARSLSAALD”, the “soluble fraction (log2)” value was -0.907.
